The values that follow come from paper PMC9800556, “Kinetics of DNA strand transfer between polymerase and proofreading exonuclease active sites regulates error correction during high-fidelity replication” (The Journal of Biological Chemistry, 2022).

Series [1] has as its target T1, T7 DNA polymerase (T7 DNA pol; T7 gp5 + E. coli thioredoxin) (Escherichia phage T7, UniProt P00581).
T1 construct: gene 5; wild-type exo-proficient (x+) gp5 catalytic subunit, purified as previously described, reconstituted with at least twofold molar excess of E. coli thioredoxin; with Thioredoxin 1
Kind of series: rapid-quench ssDNA excision, denaturing PAGE, global fit (KinTek Explorer). Type of series: biochemical. The note with it: read-out: Best fit. An excerpt:
rapid-quench ssDNA excision, denaturing PAGE, global fit (KinTek Explorer) on T7 DNA polymerase (T7 DNA pol; T7 gp5 + E. coli thioredoxin) | dCMP binds to the free enzyme, acting as a weak competitive inhibitor for ssDNA binding

Series [2] addresses T2, T7 DNA polymerase gp5 (wild-type, exo+);thioredoxin (accessory protein) (bacteriophage T7;Escherichia coli, UniProt P00581;P0AA25 1-704;2-109, |). Kind of series: equilibrium fluorescence titration (Trp-tCo FRET), hyperbolic fit; 12.5 mM Mg2+; exo site; T7 reaction buffer (composition and pH not given in the material), 12.5 mM Mg2+; 20 C stated for rapid-quench. To be noted: protein: recombinant;recombinant; tags: ;; copies: 1;1; label: tCo; single strand.

The target of series [3] is T2, T7 DNA polymerase gp5 (wild-type, …). The series can be described thus: stopped-flow fluorescence anisotropy, global fit (with tCo-27-PThio titration); 12.5 mM Mg2+; k1 1100 uM-1 s-1, k-1 44 s-1; exo site; T7 reaction buffer (composition and pH not given in the material), 12.5 mM Mg2+; 20 C stated for rapid-quench. To be noted: protein: recombinant;recombinant; tags: ;; copies: 1;1; label: 5' 6-FAM; single strand. Background: Polarisation of emitted light reports the rotation of a fluorescent probe.

The target is the same in series [4]. The series can be described thus: equilibrium fluorescence titration (Trp-tCo FRET), quadratic fit; 2 uM thioredoxin; net Kd over pol, intermediate and exo sites; Mg2+ not stated for this titration; T7 reaction buffer (composition and pH not given in the material), 12.5 mM Mg2+; 20 C stated for rapid-quench. The note with it: protein: recombinant;recombinant; tags: ;; copies: 1;1; label: tCo; primer/template, 18 nt template 5' overhang, 3'-terminal C:C mismatch.

Series [5] shares this target. The series can be described thus: equilibrium fluorescence titration (Trp-tCo FRET), quadratic fit; 12.5 mM Mg2+, 2 uM thioredoxin; net Kd over all sites; T7 reaction buffer (composition and pH not given in the material), 12.5 mM Mg2+; 20 C stated for rapid-quench. The note with it: protein: recombinant;recombinant; tags: ;; copies: 1;1; label: tCo; primer/template, 18 nt template 5' overhang, A:A mismatch buried by one terminal C:G pair.

T2 sequence (P00581 whole entry, chain 1 of 2): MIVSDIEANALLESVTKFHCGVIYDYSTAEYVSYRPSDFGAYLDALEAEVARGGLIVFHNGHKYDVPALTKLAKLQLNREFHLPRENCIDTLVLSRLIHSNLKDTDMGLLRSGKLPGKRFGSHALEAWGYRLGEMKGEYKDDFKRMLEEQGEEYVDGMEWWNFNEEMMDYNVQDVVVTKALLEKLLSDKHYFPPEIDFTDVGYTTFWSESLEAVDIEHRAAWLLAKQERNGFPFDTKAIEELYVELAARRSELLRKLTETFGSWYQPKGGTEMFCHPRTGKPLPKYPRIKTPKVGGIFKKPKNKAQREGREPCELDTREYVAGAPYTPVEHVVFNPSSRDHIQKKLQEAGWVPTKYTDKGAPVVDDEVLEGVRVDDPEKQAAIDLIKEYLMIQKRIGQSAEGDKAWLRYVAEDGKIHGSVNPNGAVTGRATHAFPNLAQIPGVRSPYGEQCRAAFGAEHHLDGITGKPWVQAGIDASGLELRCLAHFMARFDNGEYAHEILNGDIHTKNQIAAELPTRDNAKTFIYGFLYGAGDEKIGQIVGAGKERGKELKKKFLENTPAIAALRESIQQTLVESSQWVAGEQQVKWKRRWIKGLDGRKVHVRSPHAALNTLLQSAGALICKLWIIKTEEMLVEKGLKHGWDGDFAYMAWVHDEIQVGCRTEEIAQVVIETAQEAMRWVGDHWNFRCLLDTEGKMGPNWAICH
T2 sequence (P0AA25 2-109, chain 2 of 2): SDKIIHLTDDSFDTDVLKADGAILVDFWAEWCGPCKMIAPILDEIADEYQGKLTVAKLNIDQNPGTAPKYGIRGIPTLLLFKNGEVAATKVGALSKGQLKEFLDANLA
T1 sequence (P00581 whole entry): as the sequence (P00581 whole entry, chain 1 of 2) above
T1 sequence (P0AA25 2-109 partner): as the sequence (P0AA25 2-109, chain 2 of 2) above

With `Nc1ccn([C@H]2C[C@H](O)[C@@H](COP(=O)(O)O)O2)c(=O)n1` [dCMP], the Ki in series [1] was found to be 5650 µM.

B1: tCo-27-PThio (ssDNA)
DNA: CCGTCGCAGCCGTCCAACCAACTACAC
modifications: tCo (1,3-diaza-2-oxophenoxazine, C analog) at position 25; Sp phosphorothioate at the 3'-terminal linkage
Regarding B1, the equilibrium dissociation constant (Kd) in series [2] is about 0.06 µM. Consider CCGTCGCAGCCGTCCAACCAACTACAC (ssDNA, Sp phosphorothioate at the 3'-terminal linkage (A*C)) [FAM-27-PThio], for which, in series [3], the dissociation constant (Kd) was found to be 0.04 ± 0.0014 µM.

B2: tCo-27-PThio/45-3'MM-PThio (dsDNA)
DNA 1: CCGTCGCAGCCGTCCAACCAACTACAC
DNA 2: GGACGGCATTGGATCGATCTGTAGTTGGTTGGACGGCTGCGACGG
modifications: primer: tCo at position 25, Sp phosphorothioate at the 3'-terminal linkage; template: phosphorothioate at the 3'-terminal linkage
Turning to B2, in series [4], the Kd is 0.0007 ± 0.0001 µM.

B3: tCo-27-PThio/45-BMM-PThio (dsDNA)
DNA 1: CCGTCGCAGCCGTCCAACCAACTACAC
DNA 2: GGACGGCATTGGATCGATGAGTAGTTGGTTGGACGGCTGCGACGG
modifications: primer: tCo at position 25, Sp phosphorothioate at the 3'-terminal linkage; template: phosphorothioate at the 3'-terminal linkage
For the molecule B3, the Kd in series [5] is about 0.0005 µM.

Broadly, the Kd is the equilibrium constant for the complex coming apart.
